Among the data in patent US20250243257A1 are fraction of T cells with BFP reporter expression values, retold here.

In the assay the target is surface GFP (GFP fused to the PDGF transmembrane domain) [GFP: P42212]. The experiment in a line: cell-based or functional assay.

A value given as a limit tells only on which side of the number the result lay.

In turn, “α-GFP nanobody (LaG16_2) synNotch Gal4VP64 receptor (from UniProt Q01705 1427-1752)” returned a fraction of T cells with BFP reporter expression at 24 hours of more than 50%.
